# In the supplement of paper PMC7125110:
# ± gives the standard error. For part of these data: Variants at the floor of the assay were thinned out.
# B1: glmS ribozyme (parent)
# chain: AUAAAAGCGCCAGAACUACAGAAAUGUAGUUGACGAGGAGGAGGUUUAUCGAAUUUUCGGCGGAUGCCUCCAAA
# Key:
# Details in all cases: with glucosamine-6-phosphate
# glucosamine-6-phosphate [1] = variants of: B1; experiment: kcat; higher = faster cleavage; RNA array
# How it was run: (§1)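 In situ transcription by E. coli RNA polymerase produced barcoded ribozyme variants on sequenced MiSeq chips, and a hybridised Cy3 probe tracked them at 37 °C. Glucosamine-6-phosphate was flowed in at 40 μM to 10 mM in HEPES/KCl/Mg(OAc)2 buffer. kcat and KM were taken from weighted Michaelis–Menten fits of kobs values from exponential decay fits.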
# glucosamine-6-phosphate [2] = variants of: B1; experiment: KM; higher = weaker cofactor use; RNA array
# How it was run: as §1
# glucosamine-6-phosphate [3] = variants of: B1; experiment: self-cleavage kobs at 640 uM GlcN6P; higher = faster cleavage; RNA array
# How it was run: as §1
# glucosamine-6-phosphate [4] = variants of: B1; experiment: self-cleavage kobs at 2500 uM GlcN6P; higher = faster cleavage; RNA array
# How it was run: as §1
# glucosamine-6-phosphate [5] = variants of: B1; experiment: self-cleavage kobs at 10000 uM GlcN6P; higher = faster cleavage; RNA array
# How it was run: as §1
# glucosamine-6-phosphate [6] = variants of: B1; experiment: self-cleavage kobs at 160 uM GlcN6P; higher = faster cleavage; RNA array
# How it was run: as §1
# glucosamine-6-phosphate [7] = variants of: B1; experiment: self-cleavage kobs at 40 uM GlcN6P; higher = faster cleavage; RNA array
# How it was run: as §1
Variant,kcat (glucosamine-6-phosphate [1]) [s⁻¹],KM (glucosamine-6-phosphate [2]) [µM],self-cleavage kobs at 640 uM GlcN6P (glucosamine-6-phosphate [3]) [s⁻¹],self-cleavage kobs at 2500 uM GlcN6P (glucosamine-6-phosphate [4]) [s⁻¹],self-cleavage kobs at 10000 uM GlcN6P (glucosamine-6-phosphate [5]) [s⁻¹],self-cleavage kobs at 160 uM GlcN6P (glucosamine-6-phosphate [6]) [s⁻¹],self-cleavage kobs at 40 uM GlcN6P (glucosamine-6-phosphate [7]) [s⁻¹]
AUAAAAGCGCUAGAACUACAGAAAUGUAGUUGACGAGGAGGAGGUUUAUCGAACUCUCGGCGGAUGCCUCCAAA [C11U U54C U56C],0.000628 ± 6.2e-05,8410 ± 1200,4.18e-05 ± 1.9e-05,0.000151 ± 4.7e-05,0.000337 ± 9.5e-05,–,–
AUAAAAGCGCUAGAACUACAGAAAUGUAGUUGACGACGAGGAGGUUUAUCGAAUUUACGGCGGAUGCCUCCAAA [C11U G37C U57A],1.82e-05 ± 2.9e-06,–,–,–,< 1e-05,–,–
AUAAAAGCGCUAGAACUACAGAAAUGUAGCUGACGAGGAGGAGGUUUAUCGAAUUUUCGGCGGAUGCCUCCAAA [C11U U30C],0.000527 ± 0.00014,2780 ± 1100,9.85e-05 ± 1.3e-05,0.000213 ± 4.9e-05,0.000465 ± 9.9e-05,5.41e-05 ± 2.1e-05,–
AUAAAAGCGCUAGAACUACAGAAAUGUAGUUGACGAGGAAGAGGUUUAUCGAAUUUUCGGCGGAUGCCUCCAAA [C11U G40A],0.000548 ± 0.00025,–,8.42e-05 ± 2.2e-05,0.000128 ± 3e-05,0.000374 ± 6.8e-05,–,–
AUAAAAGCGCUAGAACUACAGAAAUGUAGUUGACGAGGAGGAGGUUUAUCGAAUAUUCGGCGGAUGCCUCCAAA [C11U U55A],0.00167 ± 0.0004,1260 ± 470,0.000478 ± 9.1e-05,0.000891 ± 0.0002,0.0018 ± 0.00026,0.000177 ± 3.7e-05,6.97e-05 ± 1.2e-05
AUAAAAGCGCUAGAACUACAGAAAUGUAGUUGACGAGGAGGAGGUUUAUCGAAUGUUCGGCGGAUGCCUCCAAA [C11U U55G],0.0019 ± 0.00039,1700 ± 660,0.000351 ± 7.6e-05,0.00137 ± 0.00026,0.00164 ± 0.00016,0.000214 ± 4.9e-05,5.89e-05 ± 1.1e-05
AUAAAAGCGCUAGAACUACAGAAAUGUAGUUGACGAGGAGGAGGUUUAUCGAAUCUUCGGCGGAUGCCUCCAAA [C11U U55C],0.00286 ± 0.00063,6220 ± 1800,0.00029 ± 4.1e-05,0.000776 ± 0.0001,0.00181 ± 0.0003,6.7e-05 ± 1.2e-05,–
AUAAAAGCGCUAGAACUACAGAAAUGUAGUUGACGAGGAGGAGGUGUAUCGAAUUUUCGGCGGAUGCCUCCAAA [C11U U46G],0.000268 ± 4.3e-05,2460 ± 740,5.11e-05 ± 7.1e-06,0.00018 ± 2.7e-05,0.000204 ± 2.3e-05,–,–
AUAAAAGCGCUAGAACUACAGAAAUGUAGUAGACGAGGAGGAGGUUUAUCGAAUUUUCGGCGGAUGCCUCCAAA [C11U U31A],0.00134 ± 0.00062,–,0.000376 ± 6.7e-05,0.000431 ± 0.00012,0.00146 ± 0.00025,9.69e-05 ± 2.6e-05,–
AUAAAAGCGCUAGAACUACAGAAAUGUAGUGGACGAGGAGGAGGUUUAUCGAAUUUUCGGCGGAUGCCUCCAAA [C11U U31G],0.00667 ± 0.0031,–,0.000818 ± 0.00016,0.00175 ± 0.0004,0.00565 ± 0.00097,0.000255 ± 6.7e-05,0.000105 ± 2.5e-05
AUAAAAGCGCUAGAACUACAGAAAUGUAGUCGACGAGGAGGAGGUUUAUCGAAUUUUCGGCGGAUGCCUCCAAA [C11U U31C],0.000563 ± 7.8e-05,1620 ± 460,0.000179 ± 2.3e-05,0.000364 ± 5.9e-05,0.000465 ± 5.5e-05,2.97e-05 ± 1.5e-05,–
AUAAAAGCGCUAGAACUACAGAAAUGUAGUUGACGAGGAGGAGGUUCAUCGAAUUUUCGGCGGAUGCCUCCAAA [C11U U47C],8.97e-05 ± 5.3e-06,1150 ± 290,4.05e-05 ± 1.7e-05,5.91e-05 ± 8.5e-06,8.15e-05 ± 8.5e-06,–,–
AUAAAAGCGCUAGAACUACAGAAAUGUAGUUGACGAGCAGGAGGUUUAUCGAAUUUUCGGCGGAUGCCUCCAAA [C11U G38C],< 1e-05,–,< 1e-05,< 1e-05,–,–,–
AUAAAAGCGCUAGAACUACAGAAAUGUAGUUGACGAGAAGGAGGUUUAUCGAAUUUUCGGCGGAUGCCUCCAAA [C11U G38A],< 1e-05,–,–,–,< 1e-05,< 1e-05,< 1e-05
AUAAAAGCGCUAGAACUACAGAAAUGUAGUUGACGAGGAGGAGGUUUAUCGAAUUUUCGGCGGAUACCACCAAA [C11U G66A U69A],5.61e-05 ± 6.6e-06,–,4.24e-05 ± 1.5e-05,4.46e-05 ± 1.3e-05,6.32e-05 ± 1.9e-05,–,–
AUAAAAGCGCUAGAACUACAGAAAUGUAGUUGACGAGGAGGAGGGUUAUCGAAUUUUCGGCGGAUGCCUCCAAA [C11U U45G],0.000317 ± 6.8e-05,–,–,0.000172 ± 6.6e-05,0.000222 ± 4.3e-05,–,–
